This data set is described as follows: label from the status in PepcDB records.
Consider “MPILIVAVGVLILLFLIIKVKLNTFVSLIVVSFLVAIGLGMDINKIVLSIETGIGGQLGHLALVFGLGAMLGRLVSDAGGGYRIAITLIDKFGRKRIQAAVVVASFIIGIALFFEVGLVLLIPIVYAIAKELKMPFLYLGIPMAAALNVTHGFLPPHPAPTAISVAYGAHIGQVLLFGIIIAVPTTVIAGPLFNKFAMKRFPGAYQKHGNLSGLGPRKEFQLDETPGFAISAVTSLFPVIFMAMATIFSLLLSEHSKGKDIIEFIGTPGTAMLISLLLALYTMGYARKISMQEIGRSISESISQIAMMLLIIGGGGAFKQVLIDGGVGDYVADFFRQTNMSPLFVAWTIAAVLRLCLGSATVAALTTAGMAAPLMEAGSVNPALMVLATGAGSVIACHVNDAGFWMVKEFFGLSMKETFQTWTLLTTVLSVTGLGCVLLAGLVM”, for which the protein production entry is on record as “failed”.

For the sequence “MPIMGSSVYITVELAIAVLAILGNVLVCWAVWLNSNLQNVTNYFVVSLAAADIAVGVLAIPFAITISTGFCAACHGCLFIACFVLVLTQSSIFSLLAIAIDRYIAIRIPLRYNGLVTGTRAKGIIAICWVLSFAIGLTPMLGWNNCGQPKEGKNHSQGCGEGQVACLFEDVVPMNYMVYFNFFACVLVPLLLMLGVYLRIFLAARRQLKQMESQPLPGERARSTLQKEVHAAKSLAIIVGLFALCWLPLHIINCFTFFCPDCSHAPLWLMYLAIVLSHTNSVVNPFIYAYRIREFRQTFRKIIRSHVLRQQEPFKAAGTSARVLAAHGSDGEQVSLRLNGHPPGVWANGSAPHPERRPNGYALGLVSGGSAQESQGNTGLPDVELLSHELKGVCPEPPGLDDPLAQDGAGVS”, the protein production entry is recorded as “not failed”. The entry for “MPISNPCFTSFTQPIDGYTLPEKFTFPFCYEPHPLCELAAEELQRHLEAQQEWHHNFGLSGDKSNAIGKMFGVLLVKAPTGEIGYLSAFSGKIADSNHLPYFVPPVFDMLEEDGFFKTELAEITEINATIKQLEANPQLSHLATSIQSETTASLQQIEIQRQVMIEGRKSRKAQRAAAEITAQDGTEKSAEELEQLKVVLGKESVKEKNTLRDIKLIWDEKINALQCQLNELEDALNELKTKRKNLSNGLQKKLFQQYKFLNTHGIEKDLNDIFKDTPNQIPPAGSGECAAPKLLQYAFAHGFTPLALAEFWWGIAPKSEIRQHKKFYASCQSKCQPILGHMLDGIEMDENPLLINPAEGKDLEIVYEDEFMVVVNKPADFLSVPGKNIHDSVYARIQQRYPDATGGLIIHRLDMATSGLLVLGLTPKAHKRLQQQFINRTVEKRYTALLDGVLEQDEGLITLPMRGDLYDRPRQLVCFEHGKPAETTYQVIERKENKTKVYLYPKTGRTHQLRVHCAHYLGLNMPITGDGLYGKKANRLHLHAGYLSLIHPITKEPMEFNVEAEF” is “not failed”. Regarding “MPKDNEEPLVKIPEFDERKFLFDEKERAKSIVIIFIIGAIVGSISGYFQLIGYWYLSLILILVVLLFSEYILKGLGVQVSKKTSHRILLVGEFLLTWLVFWILVLNPPLNHVSGPEIANLQMYSNNVWTSIVEKNGVYNIPFGSATSGTVSLRVYMFAYSGVVSYKVMAYQSSYAPAVIPSHLNDNYLYFNLTDVHYGSTYYVQVYGSTTVNGSNLTSEVSYTLYAE”, the protein production entry was “failed”.

For “MPKIHELSETLTNQIAAGEVIERPASVVKELVENSLDAGATRIRVDFVDAGLKQIVVQDNGTGIARDQVDLAFTRHATSKISNEHDLFKVATLGFRGEALASISAVSHVEILTATKGAIGVKATFSGGNKKGQEDAAAREGTQITVRDLFFNTPARLKYLRSPRTEIMKIVDIINRLALGYPSVSFTLSNTGKVLLRTPGNGNLKQTVANVYGRHIAEKMEEFEAKDNDFKISGLMSKPELTRSTRNFVSILLNGRYIRNFQLNTAIMDGYGAKLAARHYPIIVLAIQVDPLLVDVNVHPTKQEVRLSKEKELSRLITSTISNVFIKKTEQTSAFANLENKRETLVDQLQFNLNQNVVNTARKKTPEIHENNEKPEFLAKPKKPEEEKTDYVDLNIPREDDKYIITKTWDKNVLLQQDLRPFSNTLCDSEVISSGDETLANNLPQLSYIGQIDTYIIAENNSDLFLIDQVAARRRLQFEKIYEMLLSKKIVQQGLLTPIVLEFGNLDFIQIKDKIDQIKQIGIYLEDFGQNSFIVRSYPTWIHNDVEETIRQILDGYLNLDKGKSENLFKRVAAMQAKRDISGKINLAAAEASQILIDLRKTEDPYHDADGRLVLVRMSENELKKMFKRDK”, the protein production entry is listed as “failed”.

On to “MPKITVYTGKEVLQIDAKEGSSLLDILAENSLYVEAPCGGKGICGKCKVAVKKDGKPYLENITKEEKRLLTSDELQKGIRLCCNLKVFESLEVFLPHSKIGAKILSGLYTLEHHHHHH”, for which the protein production result is recorded as “failed”.

For “MPKKDNFSILLMGIDARPGQSMDKERSDAMVLATFNRKDKSVKLLSIPRDSYVNIPGRGYDKITHAHSLGGRDLSTETVENLLDIPVDYVMEANFSAFKEVVDELGGVPITIKEDYIVRQIKKDTKGKVNLQTGEQTLGGEEALAYVRTRKADTDLKRGERQMEVIKSIINKSKSLTSIPAYDDILDTVGKNVSMNLSLNDAIGLIPFMTSIQTVDTLQLKGSDYQPGKVYYFQLDQENLNEIKQELKQQLDVLEHHHHHH”, the protein production result is “not failed”.

Turning to “MPKKYDEATKSKAVRLVVDHRDEYDSEYGCIRAVATRIGVGPETLRKWVRQAEIDGGERDGVTTATNRENRELKRKVAELEQTVEMLRAATTFFVRESDPRHR”, the protein production result is reported as “failed”. The entry for “MPKLGMEPIRKAALVKATIVEIGRAGSLDVTVSQIAKRAGMSSALAHHYFGGKEALFIAAMRHVLSLYGAEVRGALLGAETPAARITAILQASFSATNFRREVVGAWLNFYVLAQTAPQARRLLAIYQRRLRSNLLVGLRPLAGERAADLADGLGALIDGLYLREVLKEGPPDSAAAVACARAYLNAHLKECPL” is “failed”. Next, “MPKLLIPAIIFITLALIFYTIGVWSEHRAGILKKKHVIIFWCGLVCDTLGTYTMSRIVAAGTDKGITPTDLLIHQSTGMLAIILMLIHAVWATIVLNRGSEKAKAIFHKFSLVVWFIWLIPYFVGMYIGMTS”: “failed”.

Regarding “MPKSCSASNCTNRYNNKNPEITFHRFPFSKPSVLKQWLDNIGRDDFQPRKHMVICSLHFTPDCFSGLGNRKNLLWNAVPTLFAVPTQDANQNNFRKRLKRALQSASEKWDGITPDGLPLFTEEMHEDTQDCNNNEVADCQSTKVFAAADHTYALSDACTTKARLFNILDANRWLRKRLQAKCRVIKRMKLKLKDAQRELLTLRQQIRHRHVNH”, the protein production result is recorded as “failed”.

Consider “MPKTLIILAHPNISQSTVHKHWSDAVRQHTDRFTVHELYAVYPQGKIDVAAEQKLIETHDSLVWQFPIYWFNCPPLLKQWLDEVLTYGWAYGSKGKALKGRKIALAVSLGAPAADYRADGAVGCSVAEVLRPFELTAKYCNADYRPPFTFHTIDSNAGYSEAARQEVERSARDYLAWLDALEHHHHHH”, for which the protein production entry was “not failed”.

Take “MPKTLIILAHPNISQSTVHKHWSDAVRQHTDRFTVHELYAVYPQGKIDVAAEQKLIETHDSLVWQFPIYWFNCPPLLKQWLDEVLTYGWAYGSKGKALKGRKIALAVSLGAPAADYRADGAVGCSVAEVLRPFELTAKYCNADYRPPFTFHTIDSNAGYSEAARQEVERSARDYLAWLDALQQTLEHHHHHH”: the protein production entry is recorded as “not failed”. As to “MPKVLNVVFFFSPLIISAVITYFTWVKIETILIDFGLWLAMVTAFYIFLNFYLLLRRSKRYNIEVADEMTGFKIAAFVTSFNEDPEIVERTLLSVKDAVSNQGDVFLLDDSTDENISRRLREFCTRNDINYVHRKDRRGYKAGAINDALRRIQGYDLVAIFDADQRPVRDFFKQVLPYFKDPKIAFVQVPQNYSETFSGISTGAKYQQEPFLRIIMRGRSGRSAFSLGSGTVFRIQALREVGYLPENSITEDAAVSIKLHSKGYNSVYIDVPLIWYGEPPQDLNAYLIQQSRWALGYFQLTKDIIKADLSFLKYYDYFSGFLYWIKEGPLAIVEFISPIVFLLTEIPILRINPILYLLVYLPYLFISIGIFVAGIREETEYGLKGFFYHQCVEFLEFTAVTASFISWLLGRKRPFRVTPKGGGRLNLRILLPHIVILLLLIVSTVKGILWLISANSNFLLYYAIIVNVFWAIYHIPFFLGGILISARFKTRENLTKVVYY”, the protein production result is reported as “failed”. Next, “MPLEASELKPTAGPLEASELKPTAGPLEASELKPTAGPLEASELKPTAGPLEASELKPTAGPLEASELKPTAGPLEASELKPTAGMEKTKKIAVMSGKGGVGKTTVAVNLAVALAAEGYQVGLLDLDLHGPNVQRMLGVSLPPSEGEKIVPAKYGDSLKVFSLAMILQEGAPVIWRGPLKHKAIEQLTRDVEWGDLDYLICDLPPGTGDEALSTFQIIKPDAVIVVSTPQKVAGDDVRRAINFVKRLSGKILGLVENMSYLVCPNCGEKIYVFGKGETEKLAEEFGIPLIARIPMDPEVVSLSDEGRPAVVYKRGTVIEEEFKKIVEKVLSLLEHHHHHH”: “failed”; “MPLFKFAIDVQYRSNVRDPRGETIERVLREEKGLPVKKLRLGKSIHLEVEAENKEKAYEIVKKACEELLVNPVVEEYEVREL”: “not failed”; “MPLIVSSSIMIHAKLIYTFEDAQLDGQIVAALDVNTVANAVYAHNYGSNLVKTRNIQSLSVKEVTKLQANMLLMSPPCQPHTRQGLQRDTEDKRSDALTH”: “failed”.

In the case of “MPLNRNHSELRSGKVNLKNGDPFTIALFGVDSDEKRKQQGGGERSDTIMVLSINPKEKKTELVSIPRDTKAEIAGRGTEEKINHAYAYGGPNMAVKTIEKLMNVPIDHYATIDMDGLHDMIDTLGGVDVVSNSTFTMGANHFVKGEKTHVDGDAAMDFIRSRKEDGAGGDFGRQERQQLILEAMADKMTSASSITHFNTLMNQIQKNVKTDLKLGDLNTIRTKYKDANDQVNRHQLEGEGGIQNDGLYYFIPSDASKNENTQLLRDNLNLLEHHHHHH”, the protein production result is on record as “not failed”.

Take “MPLRLPPMLPSVDTSEELDAMVRDEALLRPAAQDLCAHLGLTGARLVRFDDGSLPVYAVGGTLVLKLFPGFEAAEGVREARVLSHLWGQLPVPTPRLHAGEMYKNGWRYVLMSRLPGVSLSTAWSRIPAVEQDRIVDEAAETLAALHSVDWKPLADVVGPADWGTFLRRQRAGVLEHHRAAGLPKPWLDQIPGFLDAVRLPASGERVLLHTEFMREHLTVDPQDGWRLTGLFDFEPAMIGDPAYDFVSVGLFMSRGDPRLLRRFYQAYGRPPHDPYQLLAYTLLHVYSDLAWYLREMPAPPHPRLDALAETWFGTDG”: the protein production entry is recorded as “failed”.

On to “MPLVSVVMPVYNSAATLGAAVRSVLTQTHGDLELLVTDDQSSDGSMDLLREFAAQDERVLPRSSPERGGAGRARNLAIERARGDYVAFLDSDDMWLPEKTEKQLAFAAEGTAPLTFTSYFKMDADHDGESTDWVPNGRVIRAREHVDYRAMLVQDHIGALTAMYDRNVLGTRLMPEMRKRQDYALWLSIMRDGADARGLAEPLAVYRAHQAGSLSSNKLSLVEYNWALYREHENLSVPRATRALAGAVWQSLRNSRILEHHHHHH”, for which the protein production result is “failed”. Next, “MPMHFLLFAVVCSVLVSVLLKLAPRHRIDVFQAITWNYATAALLAWLILHPALDTLRSTTAPWVALLLLAVALPSIFLVLARSVAVAGIVRTDVAQRLSLVLSLAAAFTVFGEPVNGWKLAGLALGMVAIACIVRRPRQHVATDPLPSTTGLPWLVGVWMGFALIDLLLKHIAQAGTPSLTSLTLCFALAFLLMLGVQSVRWARGARPSTRSMLAGVLLGALNFGNILCYVRAHQVLPHSPATVFASMNLGVVVLGALVGKLGFAERLGLRGWLGLALAAPAIAAIAWGIRLG”: “failed”; “MPMTLDLQPGQRLARGVARHLRAHGFVSVEEFVPARGLRVDVMGLGPKGEIWVIECKSSRADFQADAKWQGYLEWCDRYFWAVDMEFPAELLPAESGLLIADAYDAEIVRMAPEQKLAPARRKVLIQKFATHAARRLQALRDPEGHGIFE”: “not failed”.

(Values after a protein production outcome set (Wang et al. 2014).)
